The target in the experiment is Beta Amyloid 1-40 (human) (UniProt P05067). Description: fluorescence sandwich immunoassay on D2PA plate, 6E10 capture and anti-Aβ42 detection, Aβ40 as analyte.

In the case of “anti-Aβ42 (biotinylated detection antibody of the Covance Aβ-42 ELISA kit)”, the Cross-Reactivity is 0.06%.
